Experimental data as given in paper PMC3982999 (Molecular Biology of the Cell, 2014).

Molecular target: ubiquitin agarose (UniProt P0CG48 1-76, linked to agarose beads)
Assay: pull-down

- binding result: binds
B1: GST-spartin 1-408 (domain or fragment)
chain: MEQEPQNGEPAEIKIIREAYKKAFLFVNKGLNTDELGQKEEAKNYYKQGIGHLLRGISISSKESEHTGPGWESARQMQQKMKETLQNVRTRLEILEKGLATSLQNDLQEVPKLYPEFPPKDMCEKLPEPQSFSSAPQHAEVNGNTSTPSAGAVAAPASLSLPSQSCPAEAPPAYTPQAAEGHYTVSYGTDSGEFSSVGEEFYRNHSQPPPLETLGLDADELILIPNGVQIFFVNPAGEVSAPSYPGYLRIVRFLDNSLDTVLNRPPGFLQVCDWLYPLVPDRSPVLKCTAGAYMFPDTMLQAAGCFVGVVLSSELPEDDRELFEDLLRQMSDLRLQANWNRAEEENEFQIPGRTRPSSDQLKEASGTDVKQLDQGNKDVRHKGKRGKRAKDTSSEEVNLSHIVPCEPV
